Measured values from article PMC10460880, “Cathepsin K‐Activated Probe for Fluoro‐Photoacoustic Imaging of Early Osteolytic Metastasis” (Advanced Science, 2023).

Experiments:
[1] = system: BMMs, MDA-MB-231 cells, MCF-7 cells, neutrophils; experiment: Cell selectivity experiment, other cells; assay type: cell-based; conditions: MDA-MB-231, MCF-7, neutrophils, n = 3
[2] = Fluorescence quantum yield and molar extinction coefficient; assay type: physicochemical; conditions: MES buffer 50 mM pH 6.0, 0.1% DMSO
Method: Determination of the fluorescence quantum yield and molar extinction coefficient.
Fluorescence quantum yield (Φf) was determined by using ICG (Φf = 0.13 in DMSO) as a fluorescence standard. The quantum yield was calculated using the following equation: ΦF(X) = ΦF(S) (ASFX / AXFS) (nX / nS)2, Where ΦF is the fluorescence quantum yield, A is the absorbance at the excitation wavelength, F is the area under the corrected emission curve, and n is the refractive index of the solvents used. Subscripts S and X refer to the standard and to the unknown, respectively. The excitation wavelength was at 690 nm while keeping the absorption below 0.05. To calculate the molar extinction coefficient (ε), the absorption at 690 nm of different concentrations of the CTSK-APPA before or after CTSK cleavage (0, 0.5, 1, 2, 5, 10 μM) was measured. According to the Lambert-Beer law, the extinction coefficient was the slope of the fitted curve between concentration and absorption. Both fluorescence quantum yield and extinction coefficient were measured in MES buffer (50 mM, pH 6.0) containing 0.1% DMSO. […]

Cbz‐Leu‐Arg‐OH [CTSK-APPA]
NIR fluorescence activation by other cells [1]: did not induce NIR fluorescence activation
fluorescence quantum yield (Φf) after CTSK cleavage ([2]; ICG standard, Ex 690 nm): 3.5%
fluorescence quantum yield (Φf) before CTSK cleavage ([2]; ICG standard, Ex 690 nm): 0.5%
molar extinction coefficient ε after CTSK cleavage ([2]; absorption at 690 nm, 0-10 μM): 50230 M⁻¹ cm⁻¹
molar extinction coefficient ε before CTSK cleavage ([2]; absorption at 690 nm, 0-10 μM): 28580 M⁻¹ cm⁻¹
